Assay results published in the supplement of paper PMC9112550, “Optimization of the antimicrobial peptide Bac7 by deep mutational scanning” (BMC Biology, 2022).

System: Escherichia coli TOP10
Assay: shrunken log2 fold change of peptide-encoding DNA abundance (4.5 h post-induction vs induction); higher = less antimicrobial activity (less host growth inhibition)
Conditions: time post-induction: 4.5 h; library: site-saturation at positions 5, 18, 19, 20
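Further: peptides expressed intracellularly from a pBAD plasmid library in pooled LB shake-flask culture, induced with 0.3% L-arabinose, DNA abundance read by NGS, three biological replicates, DESeq2 with apeglm shrinkage.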

| Sequence | shrunken log2 fold change |
| --- | --- |
| RRIRFRPPRLPRPRPRPRSNPRP | -0.336 |
| RRIRFRPPRLPRPRPRPRTHPRP | 0.114 |
| RRIRFRPPRLPRPRPRPRTIPRP | -0.219 |
| RRIRFRPPRLPRPRPRPRTKPRP | 0.947 |
| RRIRFRPPRLPRPRPRPRWMPRP | -0.149 |
| RRIRFRPPRLPRPRPRPSAVPRP | -0.119 |
| RRIRFRPPRLPRPRPRPSDHPRP | -0.221 |
| RRIRFRPPRLPRPRPRPSEIPRP | -0.345 |
| RRIRFRPPRLPRPRPRPSEMPRP | -0.148 |
| RRIRFRPPRLPRPRPRPSHPPRP | -0.19 |
| RRIRFRPPRLPRPRPRPSHQPRP | -0.229 |
| RRIRFRPPRLPRPRPRPSHSPRP | -0.171 |
| RRIRFRPPRLPRPRPRPSHVPRP | -0.281 |
| RRIRFRPPRLPRPRPRPSHWPRP | 0.0131 |
| RRIRFRPPRLPRPRPRPSIQPRP | -0.0528 |
| RRIRFRPPRLPRPRPRPSKIPRP | 0.903 |
| RRIRFRPPRLPRPRPRPSMLPRP | -0.47 |
| RRIRFRPPRLPRPRPRPSMNPRP | 0.274 |
| RRIRFRPPRLPRPRPRPSMTPRP | -0.227 |
| RRIRFRPPRLPRPRPRPSPFPRP | 0.0724 |
| RRIRFRPPRLPRPRPRPSRKPRP | -0.0267 |
| RRIRFRPPRLPRPRPRPSRSPRP | -0.104 |
| RRIRFRPPRLPRPRPRPSRTPRP | 0.0872 |
| RRIRFRPPRLPRPRPRPSRWPRP | 0.29 |
| RRIRFRPPRLPRPRPRPSSAPRP | -0.0032 |

| Sequence | shrunken log2 fold change |
| --- | --- |
| RRIRFRPPRLPRPRPRPSWHPRP | -0.475 |
| RRIRFRPPRLPRPRPRPSYKPRP | -0.819 |
| RRIRFRPPRLPRPRPRPSYQPRP | -0.451 |
| RRIRFRPPRLPRPRPRPTAHPRP | 0.193 |
| RRIRFRPPRLPRPRPRPTCDPRP | -0.0372 |
| RRIRFRPPRLPRPRPRPTCSPRP | -0.0827 |
| RRIRFRPPRLPRPRPRPTCTPRP | -0.0787 |
| RRIRFRPPRLPRPRPRPTDDPRP | -0.019 |
| RRIRFRPPRLPRPRPRPTELPRP | -0.161 |
| RRIRFRPPRLPRPRPRPTEPPRP | 0.00236 |
| RRIRFRPPRLPRPRPRPTFWPRP | -0.0559 |
| RRIRFRPPRLPRPRPRPTHHPRP | 0.781 |
| RRIRFRPPRLPRPRPRPTIMPRP | -0.375 |
| RRIRFRPPRLPRPRPRPTINPRP | -0.508 |
| RRIRFRPPRLPRPRPRPTIRPRP | -0.41 |
| RRIRFRPPRLPRPRPRPTLEPRP | 0.197 |
| RRIRFRPPRLPRPRPRPTNEPRP | -0.264 |
| RRIRFRPPRLPRPRPRPTNSPRP | -0.271 |
| RRIRFRPPRLPRPRPRPTNTPRP | -0.414 |
| RRIRFRPPRLPRPRPRPTQFPRP | 0.153 |
| RRIRFRPPRLPRPRPRPTREPRP | 0.599 |
| RRIRFRPPRLPRPRPRPTSPPRP | 0.194 |
| RRIRFRPPRLPRPRPRPTSTPRP | -0.0598 |
| RRIRFRPPRLPRPRPRPTTCPRP | -0.19 |
| RRIRFRPPRLPRPRPRPTTDPRP | -0.13 |

| Sequence | shrunken log2 fold change |
| --- | --- |
| RRIRFRPPRLPRPRPRPTTEPRP | 0.108 |
| RRIRFRPPRLPRPRPRPTTLPRP | -0.0787 |
| RRIRFRPPRLPRPRPRPTVKPRP | -0.163 |
| RRIRFRPPRLPRPRPRPTWPPRP | 0.422 |
| RRIRFRPPRLPRPRPRPTYMPRP | -0.0541 |
| RRIRFRPPRLPRPRPRPVADPRP | -0.00475 |
| RRIRFRPPRLPRPRPRPVCMPRP | -0.498 |
| RRIRFRPPRLPRPRPRPVDNPRP | -0.0449 |
| RRIRFRPPRLPRPRPRPVDVPRP | -0.44 |
| RRIRFRPPRLPRPRPRPVDWPRP | 0.194 |
| RRIRFRPPRLPRPRPRPVEFPRP | -0.591 |
| RRIRFRPPRLPRPRPRPVEHPRP | -0.0778 |
| RRIRFRPPRLPRPRPRPVFHPRP | -0.598 |
| RRIRFRPPRLPRPRPRPVGHPRP | -0.0219 |
| RRIRFRPPRLPRPRPRPVGVPRP | 0.356 |
| RRIRFRPPRLPRPRPRPVHHPRP | -0.00203 |
| RRIRFRPPRLPRPRPRPVHIPRP | 0.0681 |
| RRIRFRPPRLPRPRPRPVHRPRP | -0.261 |
| RRIRFRPPRLPRPRPRPVIFPRP | 0.774 |
| RRIRFRPPRLPRPRPRPVINPRP | -0.816 |
| RRIRFRPPRLPRPRPRPVLQPRP | 0.21 |
| RRIRFRPPRLPRPRPRPVLWPRP | 0.577 |
| RRIRFRPPRLPRPRPRPVMDPRP | -0.378 |
| RRIRFRPPRLPRPRPRPVNWPRP | 0.253 |
| RRIRFRPPRLPRPRPRPVQHPRP | -0.044 |

| Sequence | shrunken log2 fold change |
| --- | --- |
| RRIRFRPPRLPRPRPRPVRDPRP | 1.66 |
| RRIRFRPPRLPRPRPRPVRFPRP | 0.429 |
| RRIRFRPPRLPRPRPRPVSQPRP | 0.0413 |
| RRIRFRPPRLPRPRPRPVSTPRP | -0.476 |
| RRIRFRPPRLPRPRPRPVVPPRP | -0.196 |
| RRIRFRPPRLPRPRPRPVVSPRP | 0.0235 |
| RRIRFRPPRLPRPRPRPVWRPRP | 0.441 |
| RRIRFRPPRLPRPRPRPWAGPRP | 0.116 |
| RRIRFRPPRLPRPRPRPWARPRP | -0.114 |
| RRIRFRPPRLPRPRPRPWESPRP | -0.037 |
| RRIRFRPPRLPRPRPRPWGCPRP | -0.225 |
| RRIRFRPPRLPRPRPRPWIAPRP | -0.0534 |
| RRIRFRPPRLPRPRPRPWITPRP | -0.192 |
| RRIRFRPPRLPRPRPRPWLAPRP | 2.73 |
| RRIRFRPPRLPRPRPRPWLRPRP | -0.0551 |
| RRIRFRPPRLPRPRPRPWMKPRP | -0.0336 |
| RRIRFRPPRLPRPRPRPWNDPRP | -0.243 |
| RRIRFRPPRLPRPRPRPWNIPRP | -0.0965 |
| RRIRFRPPRLPRPRPRPWPFPRP | -0.455 |
| RRIRFRPPRLPRPRPRPWQDPRP | -0.00804 |
| RRIRFRPPRLPRPRPRPWQEPRP | -0.2 |
| RRIRFRPPRLPRPRPRPWQNPRP | -0.00226 |
| RRIRFRPPRLPRPRPRPWRWPRP | 0.0911 |
| RRIRFRPPRLPRPRPRPWTSPRP | -0.0445 |
| RRIRFRPPRLPRPRPRPWVVPRP | 0.0143 |

| Sequence | shrunken log2 fold change |
| --- | --- |
| RRIRFRPPRLPRPRPRPWYCPRP | -0.706 |
| RRIRFRPPRLPRPRPRPWYTPRP | -0.38 |
| RRIRFRPPRLPRPRPRPYAAPRP | -0.586 |
| RRIRFRPPRLPRPRPRPYATPRP | -0.419 |
| RRIRFRPPRLPRPRPRPYDGPRP | -0.18 |
| RRIRFRPPRLPRPRPRPYDPPRP | -0.0102 |
| RRIRFRPPRLPRPRPRPYDWPRP | -0.147 |
| RRIRFRPPRLPRPRPRPYFGPRP | -1.15 |
| RRIRFRPPRLPRPRPRPYFLPRP | -0.628 |
| RRIRFRPPRLPRPRPRPYGCPRP | -0.531 |
| RRIRFRPPRLPRPRPRPYGRPRP | -0.0926 |
| RRIRFRPPRLPRPRPRPYICPRP | -0.4 |
| RRIRFRPPRLPRPRPRPYITPRP | -0.906 |
| RRIRFRPPRLPRPRPRPYKQPRP | -0.83 |
| RRIRFRPPRLPRPRPRPYLSPRP | -1.86 |
| RRIRFRPPRLPRPRPRPYNWPRP | -0.0539 |
| RRIRFRPPRLPRPRPRPYQDPRP | -0.151 |
| RRIRFRPPRLPRPRPRPYSCPRP | -0.388 |
| RRIRFRPPRLPRPRPRPYSLPRP | -0.00881 |
| RRIRFRPPRLPRPRPRPYSSPRP | -0.571 |
| RRIRFRPPRLPRPRPRPYTLPRP | -1.21 |
| RRIRFRPPRLPRPRPRPYTTPRP | -0.333 |
| RRIRFRPPRLPRPRPRPYTVPRP | -0.00354 |
| RRIRFRPPRLPRPRPRPYVSPRP | -0.438 |
| RRIRFRPPRLPRPRPRPYVYPRP | -0.196 |

| Sequence | shrunken log2 fold change |
| --- | --- |
| RRIRFRPPRLPRPRPRPYYMPRP | -0.505 |
| RRIRFRPPRLPRPRPRPYYPPRP | -1.19 |
| RRIRFRPPRLPRPRPRPYYTPRP | -0.369 |
| RRIRFRPPRLPRPRPRPYYYPRP | -0.392 |
| RRIRGRPPRLPRPRPRPAAIPRP | 0.953 |
| RRIRGRPPRLPRPRPRPADGPRP | -0.133 |
| RRIRGRPPRLPRPRPRPAEMPRP | 0.621 |
| RRIRGRPPRLPRPRPRPAEWPRP | 0.542 |
| RRIRGRPPRLPRPRPRPAGCPRP | 0.973 |
| RRIRGRPPRLPRPRPRPAGLPRP | 0.479 |
| RRIRGRPPRLPRPRPRPAIAPRP | 0.91 |
| RRIRGRPPRLPRPRPRPAILPRP | -0.0316 |
| RRIRGRPPRLPRPRPRPAKPPRP | 0.82 |
| RRIRGRPPRLPRPRPRPAKVPRP | 0.431 |
| RRIRGRPPRLPRPRPRPAKYPRP | 0.155 |
| RRIRGRPPRLPRPRPRPANWPRP | 0.731 |
| RRIRGRPPRLPRPRPRPAPCPRP | 0.426 |
| RRIRGRPPRLPRPRPRPAQFPRP | 0.199 |
| RRIRGRPPRLPRPRPRPARLPRP | 0.678 |
| RRIRGRPPRLPRPRPRPASMPRP | 0.548 |
| RRIRGRPPRLPRPRPRPASPPRP | 0.323 |
| RRIRGRPPRLPRPRPRPATHPRP | 0.862 |
| RRIRGRPPRLPRPRPRPATQPRP | 0.631 |
| RRIRGRPPRLPRPRPRPAVFPRP | 0.878 |
| RRIRGRPPRLPRPRPRPAVGPRP | 1.77 |
